The nature of data set [1]: melting temperature (DSF); higher = more thermostable. An outline of the steps:
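Enzymes made in E. coli C41(DE3) were nickel-bead purified and cut free with SUMO protease before testing. Differential scanning fluorimetry gave each melting temperature. For this, 5 μL 5X Sypro Orange was added to 45 μL enzyme (0 to 0.3 mg/mL) in sealed PCR plates, and a Bio-Rad CFX96 read fluorescence from 25 °C over 250 cycles of 0.3 °C each, ramping at 0.3 °C/s.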

Data set [2] is described as follows: purified protein yield per well (BCA); higher = higher soluble expression. An outline of the steps: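 Expression was done in E. coli C41(DE3), using 2 mL autoinduction cultures with 100 µg/mL kanamycin incubated at 37 °C for 2 h and at 18 °C for 40 h. Protein was purified on Ni-charged magnetic beads and released by SUMO protease cleavage. Yield of purified protein per well was measured with the Pierce Rapid Gold BCA kit; values below 25 ug (0.1 mg/mL) are below detection.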

Data set [3] can be described thus: PET hydrolysis, aromatic products released after 48 h (umol product/mg enzyme); higher = more PET depolymerization activity. An outline of the steps:
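PET hydrolysis activity was taken as the aromatic product in the supernatant and expressed per mg enzyme. This product was measured by absorbance at 260 and 280 nm against buffer blanks. Each reaction held 5 μg (50 μL) of tagless, SUMO-cleaved candidate enzyme purified on nickel beads, plus 3.5 mg amorphous PET film or crystalline PET powder in 450 μL buffer: 50 mM NaCitrate (pH 4.5, 5.5), 50 mM NaPhosphate (pH 6.5, 7.5) or glycine (pH 8.5). Plates were sealed and left 48 h at 40 or 60 °C without shaking.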

The mark [4] stands for this setting: substrate: aFilm, 40 °C, pH 5.5.
The mark [5] stands for this setting: substrate: aFilm, 40 °C, pH 6.5.
[6] abbreviates: substrate: aFilm, 40 °C, pH 7.5.
The mark [7] stands for this setting: substrate: aFilm, 60 °C, pH 5.5.
The mark [8] stands for this setting: substrate: aFilm, 60 °C, pH 6.5.
[9] abbreviates: substrate: aFilm, 60 °C, pH 7.5.
Where [10] appears, read: substrate: cryPow, 40 °C, pH 4.5.
Setting [11] is: substrate: cryPow, 40 °C, pH 5.5.
Where [12] appears, read: substrate: cryPow, 40 °C, pH 6.5.
[13] abbreviates: substrate: cryPow, 40 °C, pH 7.5.
Setting [14] is: substrate: cryPow, 60 °C, pH 5.5.
Setting [15] is: substrate: cryPow, 60 °C, pH 6.5.
Setting [16] is: substrate: cryPow, 60 °C, pH 7.5.
Setting [17] is: substrate: cryPow, 40 °C, pH 8.5.

± gives the standard deviation of the averaged measurements. Bounds are passed on as bounds.

“ADNPYQRGPDPTAESVRASRGTFATTQVTVPAGNGFGGGVIYHPTDTSQGTFGAVAIVPGYTATWAAEGAWMGHWLASFGFVVIGVDTINRNDWDTARGTQLLAALDYLTQQSPVRNRVDASRAAVMGHSMGGGGAMSAALRRPSLKAAVGLAPFSPSQNLTNTRVPTMLIAGQNDGTTTPASISTLYNGIPASTESAYLEFAGAGHGFPTSNNPLMMRVVIPWLKIFVDNDTRYSQFLCPLTDRTGITQYRSTCPLTPPGAPTSPPTTTAPPTPTTSPSVTPSTSPSATPTTPAPDGACRATYRTTNSWPGGYQAEVTVTAGNSPINGWTVRWTLGSGQSISQVWNGTLTTSGSAVTVRNVSYNGSLQPGTSTTFGFIGGGTPSTPVLACVSP [ESM018]” yielded a melting temperature in data set [1] of 61.3 C. For the same sequence, the “purified protein yield per well” value in data set [2] amounted to 530 µg. For the same sequence, the PET hydrolysis in data set [3] (substrate: aFilm, 40 °C, pH 4.5) is less than 3; in data set [3] (setting [4]) it was less than 3; in data set [3] (setting [5]), less than 3; in data set [3] (setting [6]), less than 3; in data set [3] (substrate: aFilm, 60 °C, pH 4.5), less than 3; in data set [3] (setting [7]), less than 3. Further, the PET hydrolysis in data set [3] (setting [8]) is less than 3; in data set [3] (setting [9]), less than 3; in data set [3] (setting [10]), less than 3; in data set [3] (setting [11]) it was 3; in data set [3] (setting [12]) it was 11 ± 1.4; in data set [3] (setting [13]), 30 ± 1.4. For the same sequence, the PET hydrolysis in data set [3] (substrate: cryPow, 60 °C, pH 4.5) is less than 3; in data set [3] (setting [14]) it was less than 3; in data set [3] (setting [15]), 7 ± 9.9; in data set [3] (setting [16]), less than 3.
With “APNAAIAAAPRVAPAANPYERGPAPTEESVKAEKGPFDIAQMPVPGGAGVFGGGTIWYPKDEAGPFGAVVVSPGFMTLEPLIQWYGRTLASHGFVVMTMATITPIDPPFSRGDELRSALDYLVTKSTVKDKIDPTRTALMGHSMGGGGTLDAASKLPDLKAAIPLAPWNLDYAPPAKIKAPTLIIGADNDPIAPTAAFADPFYAALTTQNRAYLKLKNAGHTFSFLGYNPTITKYTVSWLKRFVDNDTRYDQFLCPIPAASDTVAAYQGTCPLT [DP091]”, the melting temperature in data set [1] worked out at 53.8 C. Also, the “purified protein yield per well” value in data set [2] worked out at 32 µg. Moreover, the PET hydrolysis in data set [3] (setting [11]), in data set [3] (setting [12]), in data set [3] (setting [13]) and in data set [3] (setting [17]) was less than 3 throughout.
In turn, “AENPHQRGPNPTVAALEAAAGPFAVAKVSVPGGHGFGGGTITYPTDTSQGTFGAVAVSPGFIESEGAIAWFGPRLASHGFVVITISTNGLFDQPDARGAQLLAALDYVTKSSAVRDRVDPARLAVMGHSMGGGGALYATAQRPALKASIPLLAWSNTKSWGSVRVPTMVIGAENDFIASVGSHSEPFYQSLGGEKAYLEMNDADHFVTNSPTPTVGKLTVSWLKRFMDNDTRYDQFLCPAPPVGGPISEYRDTCPYI [DP017]” registered a melting temperature in data set [1] of 49.6 C. Also, the “purified protein yield per well” value in data set [2] turned out to be 30 µg. For the same sequence, the PET hydrolysis stood at 4 in data set [3] (setting [11]), 11 in data set [3] (setting [12]), 13 in data set [3] (setting [13]) and 6 in data set [3] (setting [17]).
As for “ADNPYQRGPNPTQASIAANRGTFATAETSVGGGNGFGGAKIYYPTDTSQGTFGAIAVSPGYTATWAAEGAWMGHWLASFGFVVIGIDTINRNDREYARGTQLLAALDYLTQRSSVRTRVDPNRLAVMGHSMGGGGTISAALRRPTLKAAIGLAPYYPSQSTSGMQVPTMLLAGQNDGTSTPASIVTFYNDIPASTEKVYLELTGAGHGFPTSNNSVVTRKVIPWMKIFIDQDTRYTQFLCPLQDLTGIRTYRNSCPLLPNDPGTTFSLAGSASGKCADVPGRVQTNGTGLIIWTCNNAGNQQWTQTPAGELRIYGNTKCMDANASGQGARVTINTCNGGNSQKWTVNTNGTVTNAASGRCLDAGGTADNSPVVVNTCNAASGQTWTKRP [DP047]”, the melting temperature in data set [1] stood at 49.9 C. The “purified protein yield per well” value in data set [2] was 311 µg. For the same sequence, the PET hydrolysis in data set [3] (setting [4]) was less than 3; in data set [3] (setting [5]) it was less than 3; in data set [3] (setting [6]) it was less than 3; in data set [3] (substrate: aFilm, 40 °C, pH 8.5), less than 3; in data set [3] (setting [7]), less than 3; in data set [3] (setting [8]) it was less than 3. Further, the PET hydrolysis is less than 3 in data set [3] (setting [9]); less than 3 in data set [3] (substrate: aFilm, 60 °C, pH 8.5); less than 3 in data set [3] (setting [11]); less than 3 in data set [3] (setting [12]); less than 3 in data set [3] (setting [13]); less than 3 in data set [3] (setting [17]). The PET hydrolysis in data set [3] (setting [14]) is less than 3; in data set [3] (setting [15]), less than 3; in data set [3] (setting [16]), less than 3; in data set [3] (substrate: cryPow, 60 °C, pH 8.5) it was less than 3.
In the case of “ADNPYERGPAPTTSSIEASRGPFATASTTVSSLVSGFGGGTIYYPTSTAEGTFGAVAISPGYTGTQSSIAWLGPRIASQGFVVITIDTNTIYDQPDSRASQLLAALDYLTQSSSVRTRIDATRLGVMGHSMGGGGTLRAAESRPALQAAIPLTAWHTDKTWGNVRVPTLVIGAENDSIAPVATHSEPFYTSLPSTLDKAYLELNAADHFAPNSSNTTIAKYSISWLKRFIDNDTRYEQFLCPPPSRSLLIEEYRDTCPHS [TEP108]”, the melting temperature in data set [1] was determined as 42.1 C. The “purified protein yield per well” value in data set [2] came to 53.3 µg. Moreover, the PET hydrolysis in data set [3] (setting [10]), in data set [3] (setting [11]), in data set [3] (setting [12]) and in data set [3] (setting [13]) was less than 3 in each case.
In turn, “ASYQRGPDPTVQSVAANRGTFATAELTVPRGFGFNGGKIYYPTDTSQGTWGAIAAVPGYTASWAAEGAWMGPWLASFGFVVIGIDTNSPTDYDTARGTQLLAALDYLTGQSAVRDRVDPNRLAVLGHSMGGGGAISAAMRRPSLKAAVPLAPASFSQNLSNVRVPTLIMGARDDGTITPSSIDGLWSSKPATTQGARVELASGGHGFPTWGNSQVTRREIPWLKIFLDNDNRYAQFLCPSLADSTGVSRYISQCPYGSTGQPSSPPVSSPPAAGGPVRAVGAGKCLDVPNASQTNDTQLAIWDCNGGSNQQWTYTSGKQLRVYGGKCLDASGHGMSNGTRVIIWDCGGGANQQWNVNANGTITGVESGLCLDVTGAATANGALVDLWACNNGGNQQWRLG [ESM097]” gave a melting temperature in data set [1] of 58.3 C. The “purified protein yield per well” value in data set [2] amounted to 81.7 µg. The PET hydrolysis is less than 3 in data set [3] (setting [10]), less than 3 in data set [3] (setting [11]), less than 3 in data set [3] (setting [12]) and 4 in data set [3] (setting [13]).

The values above are taken from the supplement of paper PMC12455559.
